Test results: the supplement of paper PMC9170038

Test system: MS2 coat protein
Test: apparent KD of MS2 coat protein; designed switch direction (-1 OFF switch, 1 ON switch): -1; higher = weaker reporter binding
Method in brief: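 Designed RNA switches with common flanks were transcribed on Illumina chips by stalled E. coli RNA polymerase and titrated with SNAP-549-labelled MS2 coat protein, from 0.7 or 1.5 nM doubling to 3 µM, in Tris-HCl pH 7.5 buffer with KCl, MgCl2, BSA, DTT, tRNA and Tween-20. Steps lasted 0.8–1.5 h (lowest) to 10–20 min (highest). Titrations ran without input, with 200 uM small-molecule ligand, or with an oligonucleotide input. Normalised cluster fluorescence was curve-fitted, and apparent KD is the per-design median over clusters.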

[1] = Eterna round: R95, input ligand: FMN 200 uM
[2] = Eterna round: R95, input ligand: microRNA oligo, concentration not stated
[3] = Eterna round: R95, input ligand: none
[4] = input ligand: microRNA oligo, concentration not stated

Sequence	apparent KD of MS2 coat protein [1] [nM]	apparent KD of MS2 coat protein [2] [nM]	apparent KD of MS2 coat protein [3] [nM]	apparent KD of MS2 coat protein (input ligand: FMN 200 uM) [nM]	apparent KD of MS2 coat protein [4] [nM]	apparent KD of MS2 coat protein (input ligand: none) [nM]
AAAGAAGAGAGAAAACAACACAUGAGGAUCACCCAUGUGAGAAGAUGAGGGUGAUACAGGCUAUAUGCUCGUCUUAU (puzzle: Sensor v3, turn-off variant 1)	55	281	52.4	–	–	–
AAACCCUGAGGAUAUACAUAACAACAAAGCCUCACGUGCCAACAUGAGGAUCACCCAUGUAGAAGGCAGGCCAA [Isananra] (puzzle: Exclusion 2)	–	12.6	–	–	–	–
UGGUGGAAGCAGGAUAUGCUAGAAGUGUAGUUUGCAGAAGGGCUAACAUGAGGAUCACCCAUGUAAGAGGUGUU [JR_E6_Sub053] (puzzle: Exclusion 6)	94.2	211	290	–	–	–
CAGUACUGAGGAUAUACAUGAGGAUCACCCAUGUGUCCCGGCUAGGAAACUAGCAAAAGUAGAAGGCAGUACUG [Fiskers Ex 3 828 mod 2] (Eterna round: R96, puzzle: Exclusion 3)	–	–	–	494	21.6	24.1
ACUCGACAUGAGGAUCACCCAUGUGAGGAUAUGGCCUGUAUGGCGUGAGCUGGCUCAAUAAGAAGGCGCGUGGG [salish99_ex1_r4_051] (Eterna round: R97, puzzle: Exclusion 1)	–	–	–	235	–	188
AUGGGUCCUCACGGAGCUACAUGAGGAUCACCCAUGUGGAUUGAGGAUAUCGUAAGCCGACGGCACGAGAAGGCAGUUUACUGU [Ex NG3 #97] (Eterna round: R96, puzzle: Exclusion NG 3)	–	–	–	47.5	22.8	23.5
ACCUCUGAGGAGGAUAUACAGUGCGAAAGGACAGUAGAAGGCUUCACAUGAGGAUCACCCAUGUCGAAAAGUGA [EX6 #80] (Eterna round: R97, puzzle: Exclusion 6)	–	–	–	127	–	92.6
GAAAGAGUUCAGGAUAUCAGAGUCCAGCGACACUGAGAAGGGAAAACAUGAGGAUCACCCAUGUGGUCCUAAGC [Eternabot (L2) Solution 80] (Eterna round: R97, puzzle: Exclusion 6)	–	–	–	348	–	105
AUGAGCAGACGGAGAUCCAACAUGAGGAUCACCCAUGUCUCAAAAGCUUUUUGCUCAUCUUAUUGUACCUUGGUGCG [Mat - Sensor v3 - turn-off var 1 - JL Mod - D18] (puzzle: Sensor v3, turn-off variant 1)	161	9.21	170	–	–	–
AGCCACAGAGGAUAUACAUACAUCCAGUAGUUAAGAAUAUUACAUGAGGAUCACCCAUGUAGAAGGCUGUGGCA [Omei Ex2 BD B7] (Eterna round: R97, puzzle: Exclusion 2)	–	–	–	352	–	35.4
AGUACUAACACGAAAGUGUUAGUACUGUAGGUUUGUGUUACAUGAGGAUCACCCAUGUCCUCAUAAGCUCGUCUUGU [Mat - Sensor v3 - Turn-off var 2 - D96] (puzzle: Sensor v3, turn-off variant 2)	380	152	368	–	–	–
UUUUUAAAUGAAGGAUAUACUUAACAUGAGGAUCACCCAUGUGGUGUUGUGAGUGAGUGAGUUUAGUAGAAGGUCAAUUAUUUU [JMF's solution 20] (Eterna round: R96, puzzle: Exclusion NG 2)	–	–	–	1020	287	288
AAACCACAUGAGGAUCACCCAUGUGAGGAUAUGAUACUAUGUACUUCGGUACAUAGUAUCAGAAGGCAUGUGGA [Ex1-3: 88] (puzzle: Exclusion 1)	–	168	–	–	–	–
AUUACAUGAGGAUAUACAUGAGGAUCACCCAUGUAAAUAGCAGUGGUAGUCAACUCGAGUAGAAGGCGUAACGU [Eternabot (L1) Solution 51] (Eterna round: R97, puzzle: Exclusion 3)	–	–	–	67.8	–	58.7
CUGUUUUUCGCAGGAUAUGCUUCUCCUUUAUUAGCAGAAGGGCGUUAAACAUGAGGAUCACCCAUGUAUGGUAAUGAUAUUUUC [JR_ExcNG1_Sub060] (Eterna round: R96, puzzle: Exclusion NG 1)	–	–	–	145	52.3	55.8
CUGCUGGAGCUUUGCUUUGGUCGUACAUGAGGAUCACCCAUGUAGGAUAUGGUAGGCUUUGCUUACUAGAAGGAUAGAGUGGUC [salish99_ExNG3_r04_608] (Eterna round: R96, puzzle: Exclusion NG 3)	–	–	–	160	76.4	86.4
CUAUUGUGAGGAUAUCAGUAGUAGAACAAUAGUACUACUACUGAGAAGGCACAUGAGGAUCACCCAUGUUCCUC [Fiskers Ex 4 Super stable 44 mod 7] (puzzle: Exclusion 4)	–	57.3	–	–	–	–

Sequence	apparent KD of MS2 coat protein [1] [nM]	apparent KD of MS2 coat protein [2] [nM]	apparent KD of MS2 coat protein [3] [nM]	apparent KD of MS2 coat protein (input ligand: FMN 200 uM) [nM]	apparent KD of MS2 coat protein [4] [nM]	apparent KD of MS2 coat protein (input ligand: none) [nM]
UCUUUGUUUGUGAGGAUAUCGGUGGAAUGGAUUGUCGAGAAGGCACAUGAGGAUCACCCAUGUGUGGGACAGCA [JR_BMEx4_Sub026] (Eterna round: R97, puzzle: Brourd's mod of Exclusion 4)	–	–	–	24.3	–	22.3
GCACGGAGUGCAGGAUAUCUGUGCGAUUAGCUCAGAGAAGGGCACAUGAGGAUCACCCAUGUGUAUAAAACACAAAAUCCGUGC [Eli exng1 - 066] (Eterna round: R96, puzzle: Exclusion NG 1)	–	–	–	22.1	10.2	14.5
ACAUGAGGAUCACCCAUGUGACCACAAUGGCUGAUGUAACGACAGGAUAUGCGUGAAUAUCUAACGCAGAAGGGUCAUGACUGG [Deportation 61 - Jieux - Exclusion NG 3] (Eterna round: R96, puzzle: Exclusion NG 3)	–	–	–	62.8	30.5	48.2
UUGAUGUCAUCAGGAUAUAGUAUUUAAGACAUAUCUUCUUUCAAACAUGAGGAUCACCCAUGUCGCUAGAAGGGAUGAAUGAUU [JR_ExcNG2_Sub085] (Eterna round: R96, puzzle: Exclusion NG 2)	–	–	–	–	12.1	–
CCGUGCACGCUCCGGUCCUACAUGAGGAUCACCCAUGUGGUCCGGUGGCGUGGGUCGCCGGACUUGGCUCGUCUUGU [salish99_S_TOV1_R5_018] (Eterna round: R97, puzzle: Sensor, turn-off variant 1)	–	–	–	16.3	–	17.4
AAAGUAGACCUUGAAGCAUCGUAAACAUGAGGAUCACCCAUGUAGGAUAUGGGUAGCUAUGCUAGCCAGAAGGAUGUGUGGUGA [Eternabot solution 16] (Eterna round: R96, puzzle: Exclusion NG 3)	–	–	–	335	39	54.4
AGAAAUGCCCAUGGCCACAAGCUCUUUGCUUGUCUUACUACAUGAGGAUCACCCAUGUAACAUGGGCUCCUGAUAAU [Been] (puzzle: Sensor v3, turn-off variant 2)	12.2	9.19	11.3	–	–	–
AACGUGCAGCUUUGCUGUACGCGUACAUGAGGAUCACCCAUGUAGGAUAUGGUACGCAAAGCGUGCUAGAAGGAUAUGGAGAAA [Mat - Exclusion NG 3 - Mod of JL - D82] (Eterna round: R96, puzzle: Exclusion NG 3)	–	–	–	14.7	11.5	16.2
GCAAUGAGUGUGAGGAUAUGCUGGUCCUUGGAUCAGCAGAAGGCACAUGAGGAUCACCCAUGUGAAAACAUUGC [Mat - Exclusion 4 - JL Mod - D63] (puzzle: Brourd's mod of Exclusion 4)	147	17.4	23.1	–	–	–
AAUUUACAUGAGGAUCACCCAUGUGAGGAUAUAUGUUUUAAUUUUUUUUUUUUUUUACAUAGAAGGCGCGUGAU [JR_Exc1_Sub046] (Eterna round: R97, puzzle: Exclusion 1)	–	–	–	51.7	–	58.5
UAUAUGCAAGCGAGAUCCCACAUGAGGAUCACCCAUGUAAUAAAUAAGCACAGAAUUACUGUGAAAGCUCGUCUUAU [Winner reversed engineered 37] (Eterna round: R97, puzzle: Sensor, turn-off variant 1)	–	–	–	92.5	–	105
GCCGAGUGAGGAUAUACAUGAGGAUCACCCAUGUAAACACGAAAGCAAGUGUCCCUCAGUAGAAGGCGCCAGGA [Xeanonis] (puzzle: Exclusion 3)	18.2	13.9	14	–	–	–
UAUAUAUAGUAAGGAUAUGUAUAUAUUAUAUAAACAGAAGGUACUGACAUGAGGAUCACCCAUGUUUUAGUGUGGGCAUGUAGA [JMF's solution 60] (Eterna round: R96, puzzle: Exclusion NG 1)	–	–	–	–	53.3	–
ACAACCAGAGGAUAUGCGCAUAGAUCAGACUUUGUUUCUGAACAUGAGGAUCACCCAUGUAGAAGGCUGUAACC [Ex2 #79] (Eterna round: R97, puzzle: Exclusion 2)	–	–	–	27.7	–	28.7
AAUUUUUGAUACCUUUAAUACAUGAGGAUCACCCAUGUUAUCGAGGAUAUGUAGAUGAAAUGAGAACAGAAGGCGAAGUAAGAG [JR_ExcNG3_Sub099] (Eterna round: R96, puzzle: Exclusion NG 3)	–	–	–	41.5	3.24	15.6
CCGCUCCGUGUAGGAUAUCGUUGUACCCUGCGGCGAGAAGGACAUGAGGAUCACCCAUGUAUGUUAUUAUCACGCGUGGCGCAC [Design 71] (Eterna round: R96, puzzle: Exclusion NG 1)	–	–	–	18	15.8	19.3
